According to patent CN118126168A:

Assays:
[1] = substrate: 禽流感病毒NP蛋白 (avian influenza virus)
indirect ELISA = substrate: 禽流感病毒NP蛋白 (avian influenza virus); experiment: indirect ELISA

B1: 禽流感病毒NP蛋白的单克隆抗体 (antibody, V domains shown)
VH: EVRLQESRPELVEPGASVKISCNASAYTFSDYWMNCVKQSHGKSLECIGDISPTYDRTSYNHKFKGYATLTVDKSSSSAYIELRSLTSDDSAVYYCARGGYGNYRDYWGKRTTRTVSS
VL: MKYLLATAAAGILLLAAQPAMADVVMSQTTRTLSVSIEQPASISCKSSQSLLHSDGKSYLNWLLQRPRQSPKCLSYLVSRRDSGVPDRVTGSSSGTDVTLGISSVEAEDLRVYYYWQRTHCPITVGSGTKLDIK
试纸条灵敏度 (lowest NP concentration detected) [1]: 0.18 µg/mL
ELISA titre (dilution still positive) (fold dilution) (indirect ELISA): > 102000
